Laboratory results as given in paper PMC4176372, “The interplay of primer-template DNA phosphorylation status and single-stranded DNA binding proteins in directing clamp loaders to the appropriate polarity of DNA” (Nucleic Acids Research, 2014).
Substitutions are numbered along the chain they refer to. Names and notes keep the numbering of the source.

Key:
[1] = molecular target: replication protein A (RPA) (UniProt P22336)
[2] = molecular target: replication protein A (RPA) (UniProt P22336); remark: listed apart in the source
[3] = molecular target: T1, Saccharomyces cerevisiae clamp loader replication factor C (RFC) with a full-length Rfc1 subunit (S. cerevisiae, UniProt P38630 1-861; P40348 1-353; P38629 1-340; P40339 1-323; P38251 1-354); test: stopped-flow fluorescence (PCNA-AF488_2 clamp closing); sequential mixing: 20 nM RFC, 20 nM PCNA-AF488_2 and 0.5 mM ATP incubated 4 s, then mixed with 40 nM 5′DNA pre-bound to 400 nM RPA, ATP and 200 nM unlabeled PCNA; 20°C; 30 mM HEPES pH 7.5, 150 mM NaCl, 10 mM MgCl2, 10% glycerol, 100 mM maltose; settings: both partners purified
T1 construct: Rfc1 subunit of S. cerevisiae RFC; Rfc2 subunit of S. cerevisiae RFC; Rfc3 subunit of S. cerevisiae RFC; Rfc4 subunit of S. cerevisiae RFC; Rfc5 subunit of S. cerevisiae RFC; Pentamer of Rfc1-5; source: E. coli BL21 (DE3) Rosetta, expressed from a single plasmid, purified (HighTrap SP, HighTrap heparin, MonoQ); copies: 1 + 1 + 1 + 1 + 1

[4] = molecular target: T1, Saccharomyces cerevisiae clamp loader …; test: stopped-flow fluorescence (PCNA-MDCC release from RFC); PCNA labeled with MDCC on the surface to which RFC binds; fluorescence of the RFC·PCNA-MDCC complex is greater than that of unbound PCNA-MDCC; release followed after mixing with DNA substrates with and without bound SSB/RPA; 20°C; single exponential fit; settings: both partners purified

replication protein A (RPA), sequence (P22336 whole entry, chain 1 of 3): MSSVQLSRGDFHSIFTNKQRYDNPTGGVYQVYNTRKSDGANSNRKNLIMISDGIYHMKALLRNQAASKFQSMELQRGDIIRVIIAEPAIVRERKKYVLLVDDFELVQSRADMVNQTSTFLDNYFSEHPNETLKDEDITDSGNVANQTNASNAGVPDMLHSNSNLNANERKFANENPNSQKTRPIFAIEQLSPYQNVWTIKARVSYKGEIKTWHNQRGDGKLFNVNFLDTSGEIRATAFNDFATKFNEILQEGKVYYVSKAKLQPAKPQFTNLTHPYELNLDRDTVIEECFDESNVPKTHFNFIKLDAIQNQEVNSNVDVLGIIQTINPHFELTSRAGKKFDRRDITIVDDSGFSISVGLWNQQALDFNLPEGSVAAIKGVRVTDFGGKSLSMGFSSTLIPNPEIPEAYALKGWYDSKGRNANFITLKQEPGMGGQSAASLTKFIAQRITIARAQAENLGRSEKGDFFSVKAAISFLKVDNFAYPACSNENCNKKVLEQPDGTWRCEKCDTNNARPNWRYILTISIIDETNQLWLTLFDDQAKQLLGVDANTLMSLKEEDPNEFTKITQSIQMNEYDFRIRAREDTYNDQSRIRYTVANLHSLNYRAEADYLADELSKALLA
replication protein A (RPA), sequence (P26754 whole entry, chain 2 of 3, further chain): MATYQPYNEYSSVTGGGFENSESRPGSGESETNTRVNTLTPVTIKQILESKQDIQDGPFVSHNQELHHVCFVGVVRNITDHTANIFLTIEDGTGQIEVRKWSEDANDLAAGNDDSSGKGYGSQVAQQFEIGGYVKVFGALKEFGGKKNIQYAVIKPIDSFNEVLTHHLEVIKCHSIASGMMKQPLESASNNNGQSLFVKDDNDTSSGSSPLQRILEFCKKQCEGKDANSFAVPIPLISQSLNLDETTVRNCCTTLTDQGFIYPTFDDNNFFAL
replication protein A (RPA), sequence (P26755 whole entry, chain 3 of 3, further chain): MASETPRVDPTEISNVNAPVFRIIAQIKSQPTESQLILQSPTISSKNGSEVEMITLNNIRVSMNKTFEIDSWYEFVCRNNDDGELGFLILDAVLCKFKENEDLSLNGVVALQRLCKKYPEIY

Saccharomyces cerevisiae clamp loader replication factor C (RFC) with a full-length Rfc1 subunit (from UniProt P38630 1-861; P40348 1-353; P38629 1-340; P40339 1-323; P38251 1-354) (complex)
k obs1 of PCNA closing by RFC on 3′DNA with the non-cognate SSB substituted for RPA [1]: 4.6 s⁻¹ | rate of PCNA closing by RFC on 5′DNA with the non-cognate SSB substituted for RPA [1]: 0.45 s⁻¹ | k obs1 of PCNA-AF488 2 closing by RFC on 3′DNA·RPA [2]: 4.4 s⁻¹ | kobs of PCNA-AF488 2 closing by RFC on phosphorylated 5′DNA·RPA [2]: 0.09 s⁻¹

B1: PCNA-AF488_(2) (S. cerevisiae PCNA, C22/62/81S, I111C, I181C, labeled with AF488) (natural protein, UniProt P15873 1-258, looked up)
chain: MLEAKFEEASLFKRIIDGFKDSVQLVNFQCKEDGIIAQAVDDSRVLLVSLEIGVEAFQEYRSDHPVTLGMDLTSLSKILRSGNNTDTLTLIADNTPDSIILLFEDTKKDRCAEYSLKLMDIDADFLKIEELQYDSTLSLPSSEFSKIVRDLSQLSDSINIMITKETIKFVADGDIGSGSVCIKPFVDMEHPETSIKLEMDQPVDLTFGAKYLLDIIKGSSLSDRVGIRLSSEAPALFQFDLKSGFLQFFLAPKFNDEE
modifications: AF488 on the cysteines introduced at positions 111 and 181
notes: proliferating cell nuclear antigen (PCNA), the S. cerevisiae sliding clamp; also called fluorescent PCNA; source: purified as described previously
binding result [3]: binds

B2: PCNA-MDCC (S. cerevisiae PCNA, C22/62/81S, S43C, labeled with MDCC) (natural protein, UniProt P15873 1-258, looked up)
chain: B1 chain with S43C, C111I, C181I
modifications: MDCC on the cysteine introduced at position 43
notes: proliferating cell nuclear antigen (PCNA), the S. cerevisiae sliding clamp; source: purified as described previously
binding result [4]: binds
